According to US12427210B2, “Compounds comprising a fibroblast activation protein ligand and use thereof” (priority 2019, dated 2025):

B1: Hex-[Cys(tMeBn(DOTA-PP))-Pro-Pro-Thr-Gln-Phe-Cys]-Asp-NH2 (3BP-3407) (peptide)
peptide: CPPTQFCD
modifications: here or on the partner: N-terminal hexanoyl (Hex); Cys1 and Cys7 cyclised through tMeBn carrying DOTA-PP; C-terminal amide
B2: Hex-[Cys(tMeBn(DOTA-AET))-Pro-Pro-Thr-Gln-Phe-Cys]-OH (3BP-3554) (peptide)
peptide: CPPTQFC
modifications: here or on the partner: N-terminal hexanoyl (Hex); Cys1 and Cys7 cyclised through tMeBn carrying DOTA-AET; free C-terminal acid (-OH)

Legend:
Conditions in all cases: remark: other sources report otherwise
[1] = target: T1, 5-HT1A (h) (human), P08908; assay: radioligand displacement, compound at 10 µM
T1 chain: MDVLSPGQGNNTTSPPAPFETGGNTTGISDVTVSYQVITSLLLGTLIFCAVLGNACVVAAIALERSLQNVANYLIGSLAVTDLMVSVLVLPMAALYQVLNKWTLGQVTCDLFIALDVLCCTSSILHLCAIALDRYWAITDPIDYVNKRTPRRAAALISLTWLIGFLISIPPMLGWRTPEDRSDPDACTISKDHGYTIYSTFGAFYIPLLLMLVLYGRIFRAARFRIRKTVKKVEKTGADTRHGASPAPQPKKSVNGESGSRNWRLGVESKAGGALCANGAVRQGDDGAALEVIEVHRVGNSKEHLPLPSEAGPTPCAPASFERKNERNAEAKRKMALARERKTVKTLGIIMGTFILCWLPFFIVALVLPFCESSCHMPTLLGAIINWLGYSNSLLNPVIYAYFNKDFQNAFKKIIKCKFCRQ

[2] = target: 5-HT1B (h) (human), P28222; assay: radioligand displacement, compound at 10 µM
[3] = target: 5-HT2B (h) (human), P41595; assay: radioligand displacement, compound at 10 µM
[4] = target: T2, 5-HT3 (h) (human), P46098; assay: radioligand displacement, compound at 10 µM
T2 chain: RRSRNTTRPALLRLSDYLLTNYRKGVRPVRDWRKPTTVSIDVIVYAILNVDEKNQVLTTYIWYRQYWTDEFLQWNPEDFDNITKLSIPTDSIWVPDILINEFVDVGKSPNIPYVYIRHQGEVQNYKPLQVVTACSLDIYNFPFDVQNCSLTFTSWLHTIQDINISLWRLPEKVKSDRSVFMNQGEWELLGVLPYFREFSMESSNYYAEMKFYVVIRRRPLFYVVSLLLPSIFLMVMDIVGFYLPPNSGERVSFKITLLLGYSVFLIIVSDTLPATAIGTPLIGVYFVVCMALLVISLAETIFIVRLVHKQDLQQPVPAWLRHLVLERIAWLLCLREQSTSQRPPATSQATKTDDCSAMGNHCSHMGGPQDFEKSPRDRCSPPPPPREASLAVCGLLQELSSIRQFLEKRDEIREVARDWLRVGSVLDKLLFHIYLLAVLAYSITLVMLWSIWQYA

CB1 (h) (human), P21554 = target: T3, CB1 (h) (human), P21554; assay: radioligand displacement, compound at 10 µM
T3 chain: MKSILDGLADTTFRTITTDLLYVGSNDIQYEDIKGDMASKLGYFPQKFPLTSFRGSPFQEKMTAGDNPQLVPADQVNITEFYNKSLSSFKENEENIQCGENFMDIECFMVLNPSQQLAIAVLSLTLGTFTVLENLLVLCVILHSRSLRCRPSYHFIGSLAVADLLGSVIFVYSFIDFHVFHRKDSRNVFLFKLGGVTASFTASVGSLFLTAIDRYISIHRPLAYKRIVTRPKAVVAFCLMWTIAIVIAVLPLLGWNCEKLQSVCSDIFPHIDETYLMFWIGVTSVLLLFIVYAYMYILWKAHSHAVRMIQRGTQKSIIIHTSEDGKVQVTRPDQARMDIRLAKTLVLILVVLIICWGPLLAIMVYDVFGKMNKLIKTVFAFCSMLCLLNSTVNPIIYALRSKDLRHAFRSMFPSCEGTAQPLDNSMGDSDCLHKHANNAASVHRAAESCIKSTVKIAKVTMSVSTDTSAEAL

ETA (h) (human), P25101 = target: T4, ETA (h) (human), P25101; assay: radioligand displacement, compound at 10 µM
T4 chain: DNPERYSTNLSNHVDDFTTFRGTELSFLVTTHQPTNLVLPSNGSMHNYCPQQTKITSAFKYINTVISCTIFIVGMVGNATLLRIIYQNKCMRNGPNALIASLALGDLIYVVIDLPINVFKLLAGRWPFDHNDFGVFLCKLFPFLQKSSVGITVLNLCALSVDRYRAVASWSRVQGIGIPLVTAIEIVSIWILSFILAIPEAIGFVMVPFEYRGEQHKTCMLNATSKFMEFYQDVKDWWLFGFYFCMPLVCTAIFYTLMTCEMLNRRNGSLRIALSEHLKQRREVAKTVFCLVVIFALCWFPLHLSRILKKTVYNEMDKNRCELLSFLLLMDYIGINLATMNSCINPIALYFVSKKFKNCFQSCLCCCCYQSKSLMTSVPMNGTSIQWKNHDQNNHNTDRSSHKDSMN

[5] = target: kappa (h) (KOP) (human), P41145; assay: radioligand displacement, compound at 10 µM
[6] = target: human fibroblast activation protein (FAP) on human WI-38 fibroblasts (human); assay: competitive FACS binding on FAP-expressing WI-38 cells against 3 nM Cy5-labeled compound; category A = pIC50 values >8.0

Chain of kappa (h) (KOP) (human), P41145 (P41145 whole entry): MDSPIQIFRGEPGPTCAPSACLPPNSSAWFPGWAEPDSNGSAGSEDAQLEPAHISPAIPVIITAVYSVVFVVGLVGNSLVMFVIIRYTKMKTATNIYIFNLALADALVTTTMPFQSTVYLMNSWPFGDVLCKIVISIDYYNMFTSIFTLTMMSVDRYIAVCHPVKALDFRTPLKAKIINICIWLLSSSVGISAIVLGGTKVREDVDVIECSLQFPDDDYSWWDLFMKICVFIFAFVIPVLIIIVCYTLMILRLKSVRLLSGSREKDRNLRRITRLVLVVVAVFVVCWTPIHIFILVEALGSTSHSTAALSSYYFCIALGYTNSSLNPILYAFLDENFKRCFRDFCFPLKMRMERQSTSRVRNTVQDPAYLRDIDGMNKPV
Chain of 5-HT2B (h) (human), P41595 (P41595 whole entry): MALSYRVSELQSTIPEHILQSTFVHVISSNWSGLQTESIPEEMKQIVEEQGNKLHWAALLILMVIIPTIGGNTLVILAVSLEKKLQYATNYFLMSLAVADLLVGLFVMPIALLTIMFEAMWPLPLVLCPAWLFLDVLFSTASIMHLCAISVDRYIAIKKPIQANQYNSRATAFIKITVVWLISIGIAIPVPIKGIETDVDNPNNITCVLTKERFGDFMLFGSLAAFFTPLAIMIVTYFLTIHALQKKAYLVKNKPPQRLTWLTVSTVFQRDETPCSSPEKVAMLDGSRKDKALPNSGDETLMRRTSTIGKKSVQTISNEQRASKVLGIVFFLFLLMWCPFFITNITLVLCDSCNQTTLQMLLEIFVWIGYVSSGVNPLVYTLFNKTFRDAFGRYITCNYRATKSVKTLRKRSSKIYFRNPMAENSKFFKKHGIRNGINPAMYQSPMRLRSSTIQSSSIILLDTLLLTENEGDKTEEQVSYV

% Inhibition of Specific Binding [1] | % Inhibition of Specific Binding [2] | % Inhibition of Specific Binding [3] | % Inhibition of Specific Binding [4] | % Inhibition of Specific Binding (CB1 (h) (human), P21554) | % Inhibition of Specific Binding (ETA (h) (human), P25101) | % Inhibition of Specific Binding [5] | pIC50 Category (FACS) [6] | Binder
-3% | -11% | 2% | 2% | 5% | -18% | 7% | – | B1
-5% | 8% | 3% | 4% | -7% | 6% | 10% | > 8 pIC50 | B2
